{"source": "patent US20240190990A1", "about": "(BEIGENE SWITZERLAND, published 2024)", "key": {"BSA": {"target": "T1, BSA (Bos taurus, UniProt P02769)", "T1 construct": "coated on the ELISA plate as negative control antigen; also called bovine serum albumin", "T1 sequence (P02769 25-607 limits assumed)": "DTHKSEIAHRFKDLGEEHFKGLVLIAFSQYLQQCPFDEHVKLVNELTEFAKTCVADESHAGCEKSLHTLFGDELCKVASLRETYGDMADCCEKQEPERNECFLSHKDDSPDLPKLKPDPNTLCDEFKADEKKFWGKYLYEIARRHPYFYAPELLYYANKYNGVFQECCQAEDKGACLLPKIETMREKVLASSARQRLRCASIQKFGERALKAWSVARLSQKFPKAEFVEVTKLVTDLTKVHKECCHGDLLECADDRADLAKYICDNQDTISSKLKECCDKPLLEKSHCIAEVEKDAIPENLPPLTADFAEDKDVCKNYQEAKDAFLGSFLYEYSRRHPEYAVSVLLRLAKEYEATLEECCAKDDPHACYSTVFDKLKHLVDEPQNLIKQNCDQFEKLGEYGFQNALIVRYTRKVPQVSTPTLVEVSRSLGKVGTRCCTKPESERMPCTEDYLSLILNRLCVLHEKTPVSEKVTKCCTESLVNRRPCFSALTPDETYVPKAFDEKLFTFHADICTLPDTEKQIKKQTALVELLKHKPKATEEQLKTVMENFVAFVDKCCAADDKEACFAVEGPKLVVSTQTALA", "test": "antigen ELISA: antigen coated at 10 ug/ml, HRP anti-mouse IgG [panel B]", "method": "For this experiment, sCEA, CHIM, monkey CEA, CEA-v and BSA were coated in 96-well plates at a high concentration of 10 μg/ml overnight at 4° C. […] The HRP-linked anti-mouse IgG antibody (Cat. No. 7076S, Cell Signaling Technology, USA) and substrate (Cat. No. 00-4201-56, eBioscience, USA) were used for development, and absorbance signal at the wavelength of 450 nm was measured using a plate reader (SpectraMax Paradigm, Molecular Devices, USA)."}, "[1]": {"target": "T2, full-length human CEA on cells (human, UniProt P06731 35-685)", "T2 construct": "endogenous on MKN45 and LOVO cells, transduced on L929 and CT26 cells; also called CEACAM5; native CEA", "T2 sequence": "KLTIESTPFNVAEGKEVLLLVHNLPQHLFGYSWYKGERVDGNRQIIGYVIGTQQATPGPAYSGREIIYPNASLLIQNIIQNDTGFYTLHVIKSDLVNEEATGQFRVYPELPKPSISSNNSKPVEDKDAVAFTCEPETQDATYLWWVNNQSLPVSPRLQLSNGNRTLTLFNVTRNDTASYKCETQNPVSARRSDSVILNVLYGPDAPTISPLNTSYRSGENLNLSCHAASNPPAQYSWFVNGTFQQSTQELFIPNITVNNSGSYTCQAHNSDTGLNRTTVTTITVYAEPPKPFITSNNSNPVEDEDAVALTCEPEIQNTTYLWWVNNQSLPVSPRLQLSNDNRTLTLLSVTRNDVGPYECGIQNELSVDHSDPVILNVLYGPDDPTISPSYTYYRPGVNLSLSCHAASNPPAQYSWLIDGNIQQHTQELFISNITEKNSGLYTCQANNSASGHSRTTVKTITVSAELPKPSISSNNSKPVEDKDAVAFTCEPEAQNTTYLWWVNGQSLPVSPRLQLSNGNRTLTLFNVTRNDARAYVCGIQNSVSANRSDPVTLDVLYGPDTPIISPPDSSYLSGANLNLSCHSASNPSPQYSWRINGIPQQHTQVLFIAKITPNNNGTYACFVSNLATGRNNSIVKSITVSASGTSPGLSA", "test": "flow cytometry on LOVO cells, Alexa Fluor 647 anti-human IgG Fc", "method": "For this experiment, anti-human IgG (Fc) antibody was immobilized on an activated CM5 biosensor chip (Cat. No. BR100839, GE Life Sciences). Anti-CEA antibodies were flowed over the chip surface and captured by anti-human Fab antibody. […] For flow cytometry, CEA-expressing cells (10⁵ cells/well) were incubated with various concentrations of purified affinity-matured antibodies, followed by binding with Alexa Fluro-647-labeled anti-hu IgG Fc antibody (Cat. No. 409320, BioLegend, USA). Cell fluorescence was quantified using a flow cytometer (Guava easyCyte™ 8HT, Merck-Millipore, USA). The equilibrium dissociation constant (KD) was calculated as the ratio koff/kₒₙ."}, "[2]": {"target": "T2, full-length human CEA on cells", "test": "cell-based or functional assay"}, "[3]": {"target": "T3, CEACAM8 on transfected HEK293 cells (human, UniProt P31997 35-320)", "T3 sequence": "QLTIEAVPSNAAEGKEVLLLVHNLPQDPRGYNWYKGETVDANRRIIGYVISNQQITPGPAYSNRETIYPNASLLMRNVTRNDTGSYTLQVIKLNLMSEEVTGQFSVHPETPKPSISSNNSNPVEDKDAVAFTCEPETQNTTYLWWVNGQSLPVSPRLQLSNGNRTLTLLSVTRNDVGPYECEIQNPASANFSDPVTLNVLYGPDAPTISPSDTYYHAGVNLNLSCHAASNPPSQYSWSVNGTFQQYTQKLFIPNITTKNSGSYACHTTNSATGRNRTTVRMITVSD", "test": "flow cytometry on transiently transfected HEK293 cells, Alexa Fluor 647 anti-human IgG Fc [panel B]", "method": "(§1) Cell fluorescence was quantified using a flow cytometer (Guava easyCyte™ 8HT, Merck-Millipore, USA). For antigen ELISA, CEACAM1(SEQ ID NO:64) (Cat. No. 10822-H08H, Sino Biological, China), CHIM (SEQ ID NO: 63), CEA (SEQ ID NO:55) or CEACAM6 (SEQ ID NO:57) were coated in 96-well plates at a concentration of 10 μg/ml overnight at 4° C. The HRP-linked anti-human Fc (Fc specific) IgG antibody (Cat. No. A0170, Sigma, USA) and substrate (Cat. No. 00-4201-56, eBioscience, USA) were used for development, and absorbance signal at the wavelength of 450 nm was measured using a plate reader (SpectraMax Paradigm, Molecular Devices, USA)."}, "[4]": {"target": "T4, CEACAM7 on transfected HEK293 cells (human, UniProt Q14002 36-242)", "T4 sequence": "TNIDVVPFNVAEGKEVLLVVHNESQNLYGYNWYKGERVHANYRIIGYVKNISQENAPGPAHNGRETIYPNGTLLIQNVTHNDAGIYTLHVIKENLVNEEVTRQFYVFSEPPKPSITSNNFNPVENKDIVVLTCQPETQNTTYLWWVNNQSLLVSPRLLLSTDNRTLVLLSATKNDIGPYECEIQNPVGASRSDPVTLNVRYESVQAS", "test": "flow cytometry on transiently transfected HEK293 cells, Alexa Fluor 647 anti-human IgG Fc [panel B]", "method": "as §1"}, "[5]": {"target": "T2, full-length human CEA on cells", "test": "flow cytometry on MKN45 cells, Alexa Fluor 647 anti-human IgG Fc", "method": "For flow cytometry, CEA-expressing MKN45 cells (10⁵ cells/well) were incubated with various concentrations of purified affinity-matured antibodies, followed by binding with Alexa Fluro-647-labeled anti-hu IgG Fc antibody (Cat. No. 409320, BioLegend, USA). Cell fluorescence was quantified using a flow cytometer (Guava easyCyte™ 8HT, Merck-Millipore, USA)."}}}
{"binder": "BGA13 (antibody, V domains shown, murine monoclonal IgG purified from hybridoma supernatant; also called murine anti-CEA antibody BGA13) VH: QVQLQQSGAELAKSGASVKMSCKASGYIFTSYWLHWVKQRPGQGLEWIGYINPNTGYTNYSQKFKDKATLTADKSSSTAYMQLSSLTSEDSAVYYCAREYGNYNYPLDYWGQGTSVTVSS VL: DIQMTQSPASLSASVGETVTITCRASENIYGYLAWYQQKQGKSPQLLVFNAKNLVEGVPSRFSGSGSGTQFSLKINSLQPEDFGSYYCQHHYGTPYTFGGGTKLEIK", "values": [{"measurement": "binding result", "setting": "BSA", "result": "no binding"}]}
{"binder": "BGA113 (antibody, human IgG1, V domains shown, W33Y (VH), T51Y (VL) on BGA131F-ph-M; wild-type human IgG1 format) VH: QVQLVQSGAEVKKPGASVKVSCKASGYIFTSYYLHWVRQAPGQGLEWIGYINPQTGYTSYAQKFQGRVTMTRDTSTSTVYMELSSLRSEDTAVYYCAREYGNYNYPLDYWGQGTLVTVSS VL: DIQMTQSPSSLSASVGDRVTITCRASENQYGYLAWYQQKPGKVPKLLIYNYKNLVEGVPSRFSGSGSGTDFTLTISSLQPEDVATYYCQHHLGTPYTFGQGTKVEIK", "values": [{"measurement": "EC50 (read off the curve)", "setting": "[1]", "result": "~1", "unit": "nM"}, {"measurement": "ADCC (LDH release), EC50", "setting": "[2]", "result": "~0.0067", "unit": "µg/mL"}]}
{"binder": "BGA131F (antibody, human IgG1, V domains shown, BGA131 with N54Q, N59S, S61A in VH; human IgG1 / kappa format) VH: QVQLVQSGAEVKKPGASVKVSCKASGYIFTSYWLHWVRQAPGQGLEWIGYINPQTGYTSYAQKFQGRVTMTRDTSTSTVYMELSSLRSEDTAVYYCAREYGNYNYPLDYWGQGTLVTVSS VL: DIQMTQSPSSLSASVGDRVTITCRASENIYGYLAWYQQKPGKVPKLLIYNAKNLVEGVPSRFSGSGSGTDFTLTISSLQPEDVATYYCQHHYGTPYTFGQGTKVEIK", "values": [{"measurement": "EC50 (read off the curve)", "setting": "[1]", "result": "~6", "unit": "nM"}]}
{"binder": "BGA113K (antibody, human IgG1, V domains shown, BGA113 with Y57K in the heavy chain; generated in human IgG1 format; also called BGA113 variant Y57K; Y57K) VH: QVQLVQSGAEVKKPGASVKVSCKASGYIFTSYYLHWVRQAPGQGLEWIGYINPQTGKTSYAQKFQGRVTMTRDTSTSTVYMELSSLRSEDTAVYYCAREYGNYNYPLDYWGQGTLVTVSS VL: DIQMTQSPSSLSASVGDRVTITCRASENQYGYLAWYQQKPGKVPKLLIYNYKNLVEGVPSRFSGSGSGTDFTLTISSLQPEDVATYYCQHHLGTPYTFGQGTKVEIK", "values": [{"measurement": "binding result", "setting": "[3]", "result": "no binding (tested: 2 ug/ml (from paragraph 184; not on the sheet))"}, {"measurement": "binding result", "setting": "[4]", "result": "no binding (tested: 2 ug/ml (from paragraph 184; not on the sheet))"}, {"measurement": "EC50 (read off the curve)", "setting": "[5]", "result": "~0.5", "unit": "µg/mL"}]}
{"binder": "BGA131F-ph-M (antibody, V domains shown, BGA13-1F heavy chain with a selected kappa light chain, IgG; also called BGA1311F-ph-M) VH: QVQLVQSGAEVKKPGASVKVSCKASGYIFTSYWLHWVRQAPGQGLEWIGYINPQTGYTSYAQKFQGRVTMTRDTSTSTVYMELSSLRSEDTAVYYCAREYGNYNYPLDYWGQGTLVTVSS VL: DIQMTQSPSSLSASVGDRVTITCRASENQYGYLAWYQQKPGKVPKLLIYNTKNLVEGVPSRFSGSGSGTDFTLTISSLQPEDVATYYCQHHLGTPYTFGQGTKVEIK", "values": [{"measurement": "EC50 (read off the curve)", "setting": "[1]", "result": "~5", "unit": "nM"}]}
